These results are taken from FireProtDB (doi:10.1021/bi020450z).

The conditions of the data set: Bos taurus; pH 8.5; Thermal; CD; Glycine; reversible: YES; whole UniProt chain shown.

B1: Adrenodoxin, mitochondrial wild type, P00257 (protein)
chain: MAARLLRVASAALGDTAGRWRLLARPRAGAGGLRGSRGPGLGGGAVATRTLSVSGRAQSSSEDKITVHFINRDGETLTTKGKIGDSLLDVVVQNNLDIDGFGACEGTLACSTCHLIFEQHIFEKLEAITDEENDMLDLAYGLTDRSRLGCQICLTKAMDNMTVRVPDAVSDARESIDMGMNSSKIE
The term Tm denotes the temperature at which the thermal transition is half complete. With B1, the Tm turned out to be 51.9 °C.
